B1: R1-26 (antibody, V domains shown)
VH: EVQLVESGGGLVQPGGSLRLSCAASGFTFSSYWMSWVRQAPGKGLEWVANIKQDGSEKYYVDSVKGRFTISRDNAKNSLYLQMNSLRAEDTAVYYCARGQLGPWVGVDYWGQGTLVTVSS
VL: NFMLTQPHSVSESPGKTVTISCTGSSGSIASNYVQWYQQRPGSAPTTVIYEDNQRPSGVPDRFSGSIDSSSNSASLTISGLKTEDEADYYCQSYDSSNWVFGGGTQLTVL
B2: H4 (antibody, V domains shown)
VH: EVQLVESGGGLVQPGGSLRLSCAASGFTFSSYWMSWVRQAPGKGLEWVANIKQDGSEKYYVDSVKGRFTISRDNAKNSLYLQMNSLRAEDTAVYYCASQLWLRGAFDIWGQGTMVTVSS
VL: NFMLTQPHSVSESPGKTVTISCTRSSGSIASNYVQWYQQRPGSSPTTVIYEDNQRPSGVPDRFSGSIDSSSNSASLTISGLKTEDEADYYCQSYDSSNVVFGGGTKLTVL
B3: H5 (antibody, V domains shown)
VH: QVQLVESGGGLVKPGGSLRLSCAASGFTFSDYYMSWIRQAPGKGLEWVSYISSSGSTIYYADSVKGRFTISRDNAKNSLYLQMNSLRAEDTAVYYCARAKWLRGHFDYWGQGTLVTVSS
VL: NFMLTQPHSVSESPGKTVTISCTRSSGSIASNYVQWYQQRPGSSPTTVIYEDNQRPSGVPDRFSGSIDSSSNSASLTISGLKTEDEADYYCQSYDSSNVVFGGGTKLTVL
notes: human IgG1
B4: H14 (antibody, V domains shown)
VH: QVQLQESGPGLVKPSQTLSLTCTVSGGSISSGGYYWSWIRQHPGKGLEWIGYIYYSGSTYYNPSLKSLVTISVDTSKNQFSLKLSSVTAADTAVYYCARKGWLRGAFDIWGQGTMVTVSS
VL: NFMLTQPHSVSESPGKTVTISCTRSSGSIASNYVQWYQQRPGSSPTTVIYEDNQRPSGVPDRFSGSIDSSSNSASLTISGLKTEDEADYYCQSYDSSNVVFGGGTKLTVL
notes: human IgG1
B5: H16 (antibody, V domains shown)
VH: QLQLQESGPGLVKPSETLSLTCTVSGGSISSSSYYWGWIRQPPGKGLEWIGSIYYSGSTYYNPSLKSRVTISVDTSKNQFSLKLSSVTAADTAVYYCARREWLRGPFDYWGQGTLVTVSS
VL: NFMLTQPHSVSESPGKTVTISCTRSSGSIASNYVQWYQQRPGSSPTTVIYEDNQRPSGVPDRFSGSIDSSSNSASLTISGLKTEDEADYYCQSYDSSNVVFGGGTKLTVL
notes: human IgG1
B6: H18 (antibody, V domains shown)
VH: QVQLQESGPGLVKPSETLSLTCTVSGGSVSSGGYFWSWIRQPPGKGLEWIGCIYYSGSTNYNPSLKSRVTISVDTSKDQFSLKLSSVTAADTAVYYCARQLWLRGRFDYWGQGTLVTVSS
VL: NFMLTQPHSVSESPGKTVTISCTRSSGSIASNYVQWYQQRPGSSPTTVIYEDNQRPSGVPDRFSGSIDSSSNSASLTISGLKTEDEADYYCQSYDSSNVVFGGGTKLTVL
notes: human IgG1
B7: R1-26 (IgG) (antibody, V domains shown)
VH: EVQLVESGGGLVQPGGSLRLSCAASGFTFSSYWMSWVRQAPGKGLEWVANIKQDGSEKYYVDSVKGRFTISRDNAKNSLYLQMNSLRAEDTAVYYCARGQLGPWVGVDYWGQGTLVTVSS
VL: NFMLTQPHSVSESPGKTVTISCTGSSGSIASNYVQWYQQRPGSAPTTVIYEDNQRPSGVPDRFSGSIDSSSNSASLTISGLKTEDEADYYCQSYDSSNWVFGGGTQLTVL
B8: H18 (recombinant mAb, IgG) (antibody, V domains shown)
VH: QVQLQESGPGLVKPSETLSLTCTVSGGSVSSGGYFWSWIRQPPGKGLEWIGCIYYSGSTNYNPSLKSRVTISVDTSKDQFSLKLSSVTAADTAVYYCARQLWLRGRFDYWGQGTLVTVSS
VL: NFMLTQPHSVSESPGKTVTISCTRSSGSIASNYVQWYQQRPGSSPTTVIYEDNQRPSGVPDRFSGSIDSSSNSASLTISGLKTEDEADYYCQSYDSSNVVFGGGTKLTVL

How the values were obtained:
SARS-CoV-2 RBD (WT) [1] = target: T1, SARS-CoV-2 RBD (WT) (SARS-CoV-2 Wuhan-Hu-1 (wildtype), UniProt P0DTC2); test: BLI; settings: both partners purified
Pangolin CoV GD1 RBD = Pangolin CoV GD1 RBD (Pangolin coronavirus Guangdong, isolate …, strain); test: BLI; settings: both partners purified
SARS-CoV-2 RBD (WT) [2] = target: T1, SARS-CoV-2 RBD (WT); test: BLI; settings: both partners purified; remark: listed apart in the source
Bat CoV RaTG13 RBD [3] = target: Bat CoV RaTG13 RBD (Bat coronavirus RaTG13, UniProt A0ABF7PLN6, strain); test: BLI; settings: both partners purified
SARS-CoV-1 RBD = SARS-CoV-1 RBD (SARS-CoV-1, strain , UniProt P59594); test: BLI; settings: both partners purified
[4] = target: T2, wildtype SARS-CoV-2 spike receptor binding domain (RBD), residues 319-541 (SARS-CoV-2, wildtype (ancestral), UniProt P0DTC2); test: cell-based or functional assay
[5] = target: T2, wildtype SARS-CoV-2 spike receptor …; test: BLI; settings: both partners purified
Bat CoV RaTG13 RBD [6] = target: Bat CoV RaTG13 RBD (Bat coronavirus RaTG13, UniProt A0ABF7PLN6); test: BLI; settings: both partners purified

Row | Binder | Kd (Pangolin CoV GD1 RBD) [nM] | koff (Pangolin CoV GD1 RBD) [s⁻¹] | kon (Pangolin CoV GD1 RBD) [M⁻¹ s⁻¹] | Kd (SARS-CoV-2 RBD (WT) [2]) [nM] | koff (SARS-CoV-2 RBD (WT) [2]) [s⁻¹] | kon (SARS-CoV-2 RBD (WT) [2]) [M⁻¹ s⁻¹] | Kd (Bat CoV RaTG13 RBD [3]) [nM] | koff (Bat CoV RaTG13 RBD [3]) [s⁻¹] | kon (Bat CoV RaTG13 RBD [3]) [M⁻¹ s⁻¹] | other results
1 | B1 | – | – | – | – | – | – | – | – | – | Kd (SARS-CoV-2 RBD (WT) [1]): 3.84 nM; koff (SARS-CoV-2 RBD (WT) [1]): 0.00177 s⁻¹; kon (SARS-CoV-2 RBD (WT) [1]): 460000 M⁻¹ s⁻¹
2 | B2 | 355 | 0.0102 | 28800 | 29.9 | 0.0105 | 351000 | 503 | 0.0134 | 26700 | –
3 | B3 | – | – | – | 1500 | 0.195 | 129000 | – | – | – | binding result (Bat CoV RaTG13 RBD [3]): no binding (tested: 200 nM (highest of the series))
4 | B4 | 451 | 0.0205 | 45500 | 34 | 0.0182 | 536000 | 302 | 0.0151 | 49900 | –
5 | B5 | 737 | 0.0254 | 34400 | 97.9 | 0.0498 | 509000 | – | – | – | binding result (Bat CoV RaTG13 RBD [3]): no binding (tested: 200 nM (highest of the series))
6 | B6 | 134 | 0.00624 | 46500 | – | – | – | 332 | 0.00612 | 18400 | Kd (SARS-CoV-1 RBD): 231 nM; koff (SARS-CoV-1 RBD): 0.00283 s⁻¹; kon (SARS-CoV-1 RBD): 12300 M⁻¹ s⁻¹
7 | B7 | – | – | – | – | – | – | – | – | – | pseudovirus neutralization IC50 (pseudovirus displaying WT SARS-CoV-2 S-protein) [4]: 2.7 nM; Kd [5]: 3.8 nM
8 | B8 | – | – | – | – | – | – | – | – | – | binding result (Bat CoV RaTG13 RBD [6]): binds
